Measurements reported in the PETadex activity labels (doi:10.1101/2025.08.30.673199).

These proteins were tested on PET (assay: Proxy for plastic degradation [Released monomer concentration (HPLC/LC-MS) (TPA+MHET+BHET)]). Conditions: pH 9.

Protein | Proxy for plastic degradation [µM]
unnamed (protein) MKAPLFKLAAFTLGVSLSSVALATNPGGGGAGSNPDTGTGFPGVSSFSADGSFATTSGSAGLSCTVFRPSTLGANGLKHPIIVWGNGTTASPSTYSGILEHWASHGFVVIAANTSNAGTGQDMLNCVDYLTTQNNRSTGTYANKLDLNRIGAAGHSQGGGGTIMAGQDYRIKVTAPFQPYTIGLGHNSSSQSNQNGPMFLMTGSADTIASPTLNALPVYNRANVPVFWGELSGASHFEPMGSAGDFRGPSTAWFRYHLMDDASAEDTFYGSNCDLCTDNDWDVRRKGIN | 870
unnamed (protein) MKAPLFKLAAFTLGVSLSSVALATNPGGGGAGSNPDTGTGFPGVSSFSADGSFATTSGSAGLSCTVFRPSTLGANGLKHPIIVWGNGTTASPSTYSGILEHWASHGFVVIAANTSNAGTGQDMLNAVDYLTTQNNRSTGTYANKLDLNRIGAAGHSQGGGGTIMAGQDYRIKVTAPFQPYTIGLGHNSSSQSNQNGPMFLMTGSADTIASPTLNALPVYNRANVPVFWGELSGASHFEPVGSAGDFRGPSTAWFRYHLMDDASAEDTFYGSNCDLCTDNDWDVRRKGIN | 250
unnamed (protein) MKAPLFKLAAFTLGVSLSSVALATNPGGGGAGSNPDTGTGFPGVSSFSADGSFATTSGSAGLSCTVFRPSTLGANGLKHPIIVWGNGTTASPSTYSGILEHWASHGFVVIAANTSNAGTGQDMLNCVDYLTTQNNRSTGTYANKLDLNRIGAAGHAQGGGGTIMAGQDYRIKVTAPFQPYTIGLGHNSSSQSNQNGPMFLMTGSADTIASPTLNALPVYNRANVPVFWGELSGASHFEPVGSAGDFRGPSTAWFRYHLMDDASAEDTFYGSNCDLCTDNDWDVRRKGIN | 10
unnamed (protein) MKAPLFKLAAFTLGVSLSSVALATNPGGGGAGSNPDTGTGFPGVSSFSADGSFATTSGSAGLSCTVFRPSTLGANGLKHPIIVWGNGTTASPSTYSGILEHWASHGFVVIAANTSNAGTGQDMLNCVDYLTTQNNRSTGTYANKLDLNRIGAAGHSQGGGGTIMAGQDYRIKVTAPFQPYTIGLGANSSSQSNQNGPMFLMTGSADTIASPTLNALPVYNRANVPVFWGELSGASHFEPVGSAGDFRGPSTAWFRYHLMDDASAEDTFYGSNCDLCTDNDWDVRRKGIN | 120
unnamed (protein) MKAPLFKLAAFTLGVSLSSVALATNPGGGGAGSNPDTGTGFPGVSSFSADGSFATTSGSAGLSCTVFRPSTLGANGLKHPIIVWGNGYTASPSTYSGILEHWASHGFVVIAANTSNAGTGQDMLNCVDYLTTQNNRSTGTYANKLDLNRIGAAGHSQGGGGTIMAGQDYRIKVTAPFQPYTIGLGHNSSSQSNQNGPMFLMTGSADTIASPTLNALPVYNRANVPVFWGELSGASHFEPVGSAGDFRGPSTAWFRYHLMDDASAEDTFYGSNCDLCTDNDWDVRRKGIN | 345
unnamed (protein) MKAPLFKLAAFTLGVSLSSVALATNPGGGGAGSNPDTGTGFPGVSSFSADGSFATTSGSAGLSCTVFRPSTLGANGLKHPIIVWGNGTTASPSTYSGILEHWASHGFVVIAANTSNAGTGQDMLNCVDYLTTQNNRSTGTYANKLDLNRIGAAGHSQGGGGTIMAGQDYRIKVTAPFQPFTIGLGHNSSSQSNQNGPMFLMTGSADTIASPTLNALPVYNRANVPVFWGELSGASHFEPVGSAGDFRGPSTAWFRYHLMDDASAEDTFYGSNCDLCTDNDWDVRRKGIN | 375
unnamed (protein) MKAPLFKLAAFTLGVSLSSVALATNPGGGGAGSNPDTGTGFPGVSSFSADGSFATTSGSAGLSCTVFRPSTLGANGLKHPIIVWGNGTTASPSTYSGILEHWASHGFVVIAANTSNAGTGQDMLNCVDYLTTQNNRSTGTYANKLDLNRIGAAGHSQGGGGTIMAGQDYRIKVTAPFQPYTIGLGHNSSSQSNQNGPMFLMTGSADTIASPTLNALPVYNRANVPVFWGELSGASHFEPVGSAGDFRGPSTAWFRYHLMDDASAEDTFYGSNADLCTDNDWDVRRKGIN | 10
unnamed (protein) MKAPLFKLAAFTLGVSLSSVALATNPGGGGAGSNPDTGTGFPGVSSFSADGSFATTSGSAGLSCTVFRPSTLGANGLKHPIIVWGNGTTASPSTYSGILEHWASHGFVVIAANTSNAGTGQDMLNCVDYLTTQNNRSTGTYANKLDLNRIGAAGHSQGGGGTIMAGQDYRIKVTAPFQPYTIGLGHASSSQSNQNGPMFLMTGSADTIASPTLNALPVYNRANVPVFWGELSGASHFEPVGSAGDFRGPSTAWFRYHLMDDASAEDTFYGSNCDLCTDNDWDVRRKGIN | 920
unnamed (protein) MKAPLFKLAAFTLGVSLSSVALATNPGGGGAGSNPDTGTGFPGVSSFSADGSFATTSGSAGLSCTVFRPSTLGANGLKHPIIVWGNGTTASPSTYSGILEHWASHGFVVIAANTSNAGTGQDMLNCVDYLTTQNNRSTGTYANKLDLNRIGAAGHSMGGGGTIMAGQDYRIKVTAPFQPYTIGLGHNSSSQSNQNGPMFLMTGSADTIASPTLNALPVYNRANVPVFWGELSGASHFEPVGSAGDFRGPSTAWFRYHLMDDASAEDTFYGSNCDLCTDNDWDVRRKGIN | 315
unnamed (protein) MKAPLFKLAAFTLGVSLSSVALATNPGGGGAGSNPDTGTGFPGVSSFSADGSFATTSGSAGLSCTVFRPSTLGANGLKHPIIVWGNGTTASPSTYSGILEHWASHGFVVIAANTSNAGTGQDMLNCVDYLTTQNNRSTGTYANKLDLNRIGAAGHSQGGGGTIMAGQDYRIKVTAPFQPYTIGLGHNSSSQSNQNGPMFLMTGSADTIASPTLNALPVYNRANVPVFWGELSGASHFEPVGSAGDFRGPSTAWFRYHLMDDASAEDTFYGSNCDLCTDNDWDVRRKGIN | 1020
unnamed (protein) MKAPLFKLAAFTLGVSLSSVALATNPGGGGAGSNPDTGTGFPGVSSFSADGSFATTSGSAGLSCTVFRPSTLGANGLKHPIIVWGNGTTASPSTYSGILEHWASHGFVVIAANTSNAGTGQDMLNCVDYLTTQNNRSTGTYANKLDLNRIGAAGHSQGGGGTIMAGQDYRIKVTAPFQPYTIGLGHNSSSQSNQNGPMFLMTGSADTIASPTLNALPVYNRANVPVFWGELSGASHIEPMGSAGDFRGPSTAWFRYHLMDDASAEDTFYGSNCDLCTDNDWDVRRKGIN | 600
unnamed (protein) MKAPLFKLAAFTLGVSLSSVALATNPGGGGAGSNPDTGTGFPGVSSFSADGSFATTSGSAGLSCTVFRPSTLGANGLKHPIIVWGNGTTASPSTYSGILEHWASHGFVVIAANTSNAGTGQDMLNCVDYLTTQNNRSTGTYANKLDLNRIGAAGHSQGGGGTIMAGQDYRIKVTAPFQPWTIGLGHNSSSQSNQNGPMFLMTGSADTIASPTLSALPIYNRANVPVFWGELSGASHFEPVGSAGDFRGPSTAWFRYHLMDDASAEDTFYGSNCDLCTDNDWDVRRKGIN | 105
unnamed (protein) MKAPLFKLAAFTLGVSLSSVALATNPGGGGAGSNPDTGTGFPGVSSFSADGSFATTSGSAGLSCTVFRPSTLGANGLKHPIIVWGNGTTASPSTYSGILEHWASHGFVVIAANTSNAGTGQDMLNCVDYLTTQNNRSTGTYANKLDLNRIGAAGHSQGGGGTIMAGQDYRIKVTAPFQPYTIGLGHNSSSQSNQNGPMFLMTGSAATIASPTLNALPVYNRANVPVFWGELSGASHFEPVGSAGDFRGPSTAWFRYHLMDDASAEDTFYGSNCDLCTDNDWDVRRKGIN | 10
unnamed (protein) MKAPLFKLAAFTLGVSLSSVALATNPGGGGAGSNPDTGTGFPGVSSFSADGSFATTSGSAGLSCTVFRPSTLGANGLKHPIIVWGNGTTASPSTYSGILEHWASHGFVVIAANTSNAGTGQDMLNCVDYLTTQNNRSTGTYANKLDLNRIGAAGHSQGGGGTIMAGQDYRIKVTAPFQPWTIGLGHNSSSQSNQNGPMFLMTGSADTIASPTLHALPFYNRANVPVFWGELSGASHFEPVGSAGDFRGPSTAWFRYHLMDDASAEDTFYGSNCDLCTDNDWDVRRKGIN | 85
unnamed (protein) MKAPLFKLAAFTLGVSLSSVALATNPGGGGAGSNPDTGTGFPGVSSFSADGSFATTSGSAGLSCTVFRPSTLGANGLKHPIIVWGNGTTASPSTYSGILEHWASHGFVVIAANTSNAGTGQDMLNCVDYLTTQNNRSTGTYANKLDLNRIGAAGHSQGGGGTIMAGQDYRIKVTAPFQPYTIGAGHNSSSQSNQNGPMFLMTGSADTIASPTLNALPVYNRANVPVFWGELSGASHFEPVGSAGDFRGPSTAWFRYHLMDDASAEDTFYGSNCDLCTDNDWDVRRKGIN | 820
unnamed (protein) MKAPLFKLAAFTLGVSLSSVALATNPGGGGAGSNPDTGTGFPGVSSFSADGSFATTSGSAGLSCTVFRPSTLGANGLKHPIIVWGNGTTASPSTYSGILEHWASHGFVVIAANTSNAGTGQDMLNCVDYLTTQNNRSTGTYANKLDLNRIGAAGHSQGGGGTIMAGQDYRIKVTAPFQPYTIGLAHNSSSQSNQNGPMFLMTGSADTIASPTLNALPVYNRANVPVFWGELSGASHFEPVGSAGDFRGPSTAWFRYHLMDDASAEDTFYGSNCDLCTDNDWDVRRKGIN | 540
